In patent publication US20170029530A1 (AbbVie / Abbott, published 2017) one finds binding result and Kd data, which are given here for 9 molecules.

In test [1] the target is T1, rat DPEP3 ECD with histidine tag (rat, UniProt Q5U2X4 36-459, limits assumed).
T1 construct: also called rDPEP3-His; ratDPEP3-His; not shown: histidine tag
T1 sequence: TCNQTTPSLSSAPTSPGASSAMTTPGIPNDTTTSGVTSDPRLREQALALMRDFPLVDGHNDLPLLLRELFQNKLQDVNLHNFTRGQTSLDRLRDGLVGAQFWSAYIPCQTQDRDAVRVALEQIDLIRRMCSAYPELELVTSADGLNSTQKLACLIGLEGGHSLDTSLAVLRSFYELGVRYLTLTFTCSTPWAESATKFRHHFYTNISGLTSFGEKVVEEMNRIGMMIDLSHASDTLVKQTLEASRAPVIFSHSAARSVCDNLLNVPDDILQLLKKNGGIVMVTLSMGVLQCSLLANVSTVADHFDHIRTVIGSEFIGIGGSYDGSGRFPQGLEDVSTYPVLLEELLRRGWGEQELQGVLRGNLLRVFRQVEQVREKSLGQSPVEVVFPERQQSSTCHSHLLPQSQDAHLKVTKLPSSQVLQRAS
Nature of the test: SPR, BIAcore 2000, antibody captured with anti-human capture kit.

The target in test [2] is T2, hDPEP1-His (human, UniProt P16444 17-385, limits assumed).
T2 construct: Neither the origin nor the limits of this protein are described; not shown: histidine tag
T2 sequence (looked up): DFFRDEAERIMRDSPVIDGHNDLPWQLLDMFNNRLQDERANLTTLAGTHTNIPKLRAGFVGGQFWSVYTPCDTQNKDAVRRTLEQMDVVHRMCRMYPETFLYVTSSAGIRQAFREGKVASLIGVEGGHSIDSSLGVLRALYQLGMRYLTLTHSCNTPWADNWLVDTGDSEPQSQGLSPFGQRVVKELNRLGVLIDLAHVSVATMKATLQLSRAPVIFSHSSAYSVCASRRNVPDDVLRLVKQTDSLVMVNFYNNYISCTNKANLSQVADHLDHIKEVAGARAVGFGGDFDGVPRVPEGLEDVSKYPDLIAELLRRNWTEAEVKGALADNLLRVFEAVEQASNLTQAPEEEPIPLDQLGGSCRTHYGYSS
Described as above.

Test [3] addresses T3, cDPEP3 (Macaca fascicularis, UniProt Q4R7M2).
T3 construct: extracellular domain; also called cynomolgus DPEP3-His; cynomolgus DPEP3 ECD with histidine tag
T3 sequence (single chain, looked up): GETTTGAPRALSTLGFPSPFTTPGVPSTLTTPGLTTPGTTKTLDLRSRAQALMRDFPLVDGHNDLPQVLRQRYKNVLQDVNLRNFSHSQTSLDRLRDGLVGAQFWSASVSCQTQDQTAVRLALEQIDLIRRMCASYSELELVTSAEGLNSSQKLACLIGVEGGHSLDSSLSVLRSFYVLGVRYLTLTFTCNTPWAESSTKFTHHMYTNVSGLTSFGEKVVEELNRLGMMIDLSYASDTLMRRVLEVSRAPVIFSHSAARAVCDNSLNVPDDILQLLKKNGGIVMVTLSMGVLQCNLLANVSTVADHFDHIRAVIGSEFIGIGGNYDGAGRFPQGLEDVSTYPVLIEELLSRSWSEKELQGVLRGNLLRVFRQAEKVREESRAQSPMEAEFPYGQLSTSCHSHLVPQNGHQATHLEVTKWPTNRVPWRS
Description: ELISA, coated antigen. On the technique in general: An ELISA detects its analyte on a solid surface through an enzyme-linked reagent.

The target of test [4] is T4, mDPEP3 (limits assumed).
T4 construct: also called mouse DPEP3-His; mouse DPEP3 ECD with histidine tag
T4 single chain: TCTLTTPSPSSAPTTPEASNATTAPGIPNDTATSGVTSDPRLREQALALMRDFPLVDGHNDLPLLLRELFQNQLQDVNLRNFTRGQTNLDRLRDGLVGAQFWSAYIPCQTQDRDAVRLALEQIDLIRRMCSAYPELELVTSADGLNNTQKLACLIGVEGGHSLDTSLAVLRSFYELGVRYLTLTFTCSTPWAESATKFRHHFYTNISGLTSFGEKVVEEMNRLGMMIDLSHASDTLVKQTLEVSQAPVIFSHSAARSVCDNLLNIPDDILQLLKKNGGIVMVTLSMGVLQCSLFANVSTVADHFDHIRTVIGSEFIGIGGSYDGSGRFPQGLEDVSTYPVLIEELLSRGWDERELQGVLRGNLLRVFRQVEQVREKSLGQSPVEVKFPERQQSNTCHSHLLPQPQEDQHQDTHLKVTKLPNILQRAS
Description: ELISA, coated antigen.

The target of test [5] is T1, rat DPEP3 ECD with histidine tag. Nature of the test: ELISA, coated antigen.
For test [6], the target named is T5, hDPEP2 ECD with histidine tag (human, UniProt Q9H4A9 33-463).
T5 construct: also called hDPEP2-His; not shown: histidine tag
T5 sequence (Q9H4A9 33-463): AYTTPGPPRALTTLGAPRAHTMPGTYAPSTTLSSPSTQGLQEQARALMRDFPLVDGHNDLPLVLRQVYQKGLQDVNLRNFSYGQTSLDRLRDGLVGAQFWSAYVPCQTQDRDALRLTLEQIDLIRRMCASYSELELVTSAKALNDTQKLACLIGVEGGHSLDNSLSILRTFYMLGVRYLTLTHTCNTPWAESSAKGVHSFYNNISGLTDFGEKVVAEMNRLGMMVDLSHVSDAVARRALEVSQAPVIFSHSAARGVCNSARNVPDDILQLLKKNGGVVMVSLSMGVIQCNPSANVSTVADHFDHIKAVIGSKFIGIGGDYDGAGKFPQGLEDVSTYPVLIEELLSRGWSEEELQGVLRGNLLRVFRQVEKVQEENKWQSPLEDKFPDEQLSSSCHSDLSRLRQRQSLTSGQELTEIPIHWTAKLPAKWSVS
Description: ELISA, coated antigen.

The target of test [7] is T6, hDPEP3-ECD-His (human, UniProt Q9H4B8 36-463).
T6 construct: also called hDPEP3-His; monomeric hDPEP3-His antigen; not shown: histidine tag
T6 sequence: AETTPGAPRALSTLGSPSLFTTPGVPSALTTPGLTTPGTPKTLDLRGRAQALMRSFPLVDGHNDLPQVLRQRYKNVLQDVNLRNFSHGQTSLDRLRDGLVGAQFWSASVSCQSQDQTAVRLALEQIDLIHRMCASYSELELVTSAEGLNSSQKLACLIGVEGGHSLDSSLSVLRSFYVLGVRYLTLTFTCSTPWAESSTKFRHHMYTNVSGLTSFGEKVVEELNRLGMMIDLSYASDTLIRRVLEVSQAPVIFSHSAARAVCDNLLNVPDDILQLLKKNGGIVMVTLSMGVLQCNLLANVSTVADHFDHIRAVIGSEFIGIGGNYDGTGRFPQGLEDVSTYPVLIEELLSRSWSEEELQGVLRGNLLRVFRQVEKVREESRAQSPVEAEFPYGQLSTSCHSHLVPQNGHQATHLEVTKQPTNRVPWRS
Description: BLI ForteBio RED, 200 nM hDPEP3-His, estimated grade. Put shortly: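 Antibodies were captured on anti-mouse Fc biosensors to 0.3-1 units, then exposed to hDPEP3-His for a 4 min association and a 3 min dissociation at 1000 rpm. A control mouse IgG response was subtracted, and KD was estimated qualitatively from the curves. Sensors were regenerated with 10 mM glycine, pH 1.7.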

Where only a bound is given, the exact number is not on record here.

B1: hSC34.38 humanized anti-DPEP3 antibody (antibody, human IgG1, kappa, V domains shown)
VH: EVQLVQSGAEVKKPGESLKISCKGSGYSFTSYYMYWVRQMPGKGLEWMGEINPSNGGANFNERFKNQVTISADKSISTAYLQWSSLKASDTAMYYCTRGLLYYDYDRGFAYWGQGTLVTVSS
VL: DVVMTQSPLSLPVTLGQPASISCKSSQSLLYSNRRTYLNWFQQRPGQSPRRLIYLVSKLDSGVPDRFSGSGSGTDFTLKISRVEAEDVGVYYCVQGTHFPFTFGQGTKLEIKR
notes: Human IgG1/kappa
With B1, the binding result in test [1] and in test [2] was “no binding” in each case.

B2: SC34.49 (antibody, mouse IgG1, V domains shown)
VH: EVQLQQSGPELVKPGSSVKISCKASGYTFTDYHMNWVKQSHGKSLEWIGNINPYYGVSTYNQNLKGTATLTVDKSSSTAYMELRGLTSEDSAVYYCVRRAMDSPRFAYWGQGTLVTVSA
VL: DIQMTQSSSYLSVSLGGRVTITCKASEHINNWLAWYQQKPGNPPRLLISGATSLETGVPSRFSGSGSGKDYTLSITGLQTEDIATYFCQQYRSTPFTFGSGTKLEIK
In the case of B2, the binding result in test [3], in test [4], in test [5] and in test [6] was “no binding (tested: 1 ug/mL)” each time. The Kd (commonly the equilibrium constant for the complex coming apart) in test [7] was greater than 10 nM.

B3: hSC34.11 humanized anti-DPEP3 antibody (antibody, human IgG1, kappa, V domains shown)
VH: EVQLVQSGAEVKKPGESLKISCKGSGYSFTNYWMIWVRQMPGKGLEWMGYIDPTTDYTAYNQKFKDQVTISADKSISTAYLQWSSLKASDTAMYYCARGGNVALDFWGQGTLVTVSS
VL: DIQMTQSPSSLSASVGDRVTITCKSSQSLLNSRTRKNYLAWYQQKPGKVPKLLIYWASTRESGVPSRFSGSGSGTDFTLTISSLQPEDVATYYCKESYNLWTFGGGTKVEIKR
notes: Human IgG1/kappa; The order is confirmed for hSC34.2 and hSC34.28
Turning to B3, the binding result in test [1] and in test [2] was “no binding” each time.

B4: hSC34.2 humanized anti-DPEP3 antibody (antibody, human IgG1, kappa, V domains shown)
VH: EVQLVQSGAEVKKPGESLKISCKGSGYSFTDYYINWVRQMPGKGLEWMGWTYPGSGPTKYNGKFRGQVTISADKSISTAYLQWSSLKASDTAMYYCARRGIYYYDGIYPNYFDYWGQGTTVTVSS
VL: DIQMTQSPSSLSASVGDRVTITCSASQGITNYLNWYQQKPGKAPKLLIYYTSRLHSGVPSRFSGSGSGTDFTLTISSLQPEDFATYYCQQYSKLPWTFGQGTKVEIKR
notes: Human IgG1/kappa
As for B4, the binding result in test [1] and in test [2] was “no binding” throughout.

B5: hSC34.28 humanized anti-DPEP3 antibody (antibody, human IgG1, kappa, V domains shown)
VH: QVQLVQSGAEVKKPGSSVKVSCKASGGTFSSYWIEWVRQAPGQGLEWMGEILPGSGNTYYNERFKDRVTITADESTSTAYMELSSLRSEDTAVYYCARRAAAYYSNPEWFAYWGQGTLVTVSS
VL: EIVLTQSPATLSLSPGERATLSCTASSSVNSFYLHWYQQKPGLAPRLLIYSTSNLASGIPDRFSGSGSGTDFTLTISRLEPEDFAVYYCHQYHRSPYTFGQGTKLEIKR
notes: Human IgG1/kappa
Take B5: the binding result in test [1] and in test [2] was “no binding” in each case.

B6: SC34.61 (antibody, mouse IgG1, V domains shown)
VH: EVKLVESGGGLVKPGGSLKLSCAASGFTFTSYTMSWVRQTPAKRLEWVATISTGGGNTYYPDIVKGRFTISRDNARSTLYLQMSSLRSEDSAMYYCARRFYDGSYNYWYFDVWGAGTTVTVSS
VL: DIQMIQSPSSMFASLGDRVSLSCRASQGIRGNLDWYQQKPGGTIKLLIYSTSNLNSGVPSRFSGSGSGSDYSLTISSLESEDFADYYCLQRDAYPYTFGGGTKLEIK
B6: the binding result in test [3], in test [4], in test [5] and in test [6] was “no binding (tested: 1 ug/mL)” each time. The Kd in test [7] is greater than 10 nM.

B7: SC34.50 (antibody, mouse IgG2b, V domains shown)
VH: QVQLQQPGAELVRPGASVKLSCKASGYTFTSYWINWVKQRPGQGLEWIGNIFPSDSYTNYNQKFRDKATLTVDKSSSTAYMQLSSPTSEDSAVYYCTIRTYGNYFDYWGQGTTLTVSS
VL: DIQMTQSSSSFSVSLGDRVTITCKASEDIYNRLAWYQQKPGNAPRLLISGATSLETGVPSRFSGSGSGKDYTLSITSLQTEDVATYYCQQYWSTIFTFGSGTKLEIK
For the molecule B7, the binding result in test [3], in test [4], in test [5] and in test [6] was “no binding (tested: 1 ug/mL)” throughout. In addition, the Kd in test [7] is greater than 10 nM.

B8: hSC34.87 humanized anti-DPEP3 antibody (antibody, human IgG1, kappa, V domains shown)
VH: QVQLVQSGAEVKKPGASVKVSCKASGYTFTSYWMLWVRQAPGQRLEWMGYIDPRNGYTEYNQKFKDRVTITRDTSASTAYMELSSLRSEDTAVYYCARGGNVAMDYWGQGTLVTVSS
VL: DIVMTQSPDSLAVSLGERATINCKSSQSLLNSRTRKNYLAWYQQKPGQPPKLLIYWASTRESGVPDRFSGSGSGTDFTLTISSLQAEDVAVYYCKQSYNLWTFGGGTKLEIKR
notes: Human IgG1/kappa
For B8, the binding result in test [1] and in test [2] was “no binding” throughout.

B9: hSC34.25 humanized anti-DPEP3 antibody (antibody, human IgG1, kappa, V domains shown)
VH: QVQLVQSGAEVKKPGASVKVSCKASGYTFTSYAISWVRQAPGQRLEWMGEIYPGSGETYYNEKFKGRVTITRDTSASTAYMELSSLRSEDTAVYYCARVNDYGSWFPYWGQGTLVTVSS
VL: DIVMTQSPDSLAVSLGERATINCKSSQSLLYSRYQKNYVAWYQQKPGQPPKLLIYWASTRESGVPDRFSGSGSGTDFTLTISSLQAEDVAVYYCQQYYRYPLTFGQGTKLEIKR
notes: Human IgG1/kappa
B9: the binding result in test [1] and in test [2] was “no binding” throughout.
